Laboratory results published in publication PMC12494034.
Several values for one entry are separate records, joined by “and”; a condition that tells them apart may be missing. Equal entries are not always repeated.

How the values were obtained:
Assay in all cases: cryo-EM structure; single-particle analysis of purified HFTV1 virions (DNA-filled and empty particles sorted by 2D classification) in 18% SW buffer (2.47 M NaCl, 89 mM MgCl2, 85 mM MgSO4, 56 mM KCl, 3 mM CaCl2, 48 mM tris-HCl, pH 7.2); focused refinements of head, turrets, portal, tail, baseplate and tail fibers
[1] = target: baseplate hub gp44 of HFTV1 (Haloferax tailed virus 1 (HFTV1))
[2] = target: baseplate-tail connector gp41 of HFTV1 (Haloferax tailed virus 1 (HFTV1))
[3] = target: capsid stabilization protein gp18 of HFTV1 (Haloferax tailed virus 1 (HFTV1))
[4] = target: head-tail connector gp26 of HFTV1 (Haloferax tailed virus 1 (HFTV1))
[5] = target: major capsid protein gp19 of Haloferax tailed virus 1 (HFTV1) (Haloferax tailed virus 1 (HFTV1))
[6] = target: portal interface protein gp21 of HFTV1 (Haloferax tailed virus 1 (HFTV1))
[7] = target: portal protein gp13 of HFTV1 (Haloferax tailed virus 1 (HFTV1))
[8] = target: tail completion protein gp29 of HFTV1 (Haloferax tailed virus 1 (HFTV1))
[9] = target: tail fiber protein gp42 of HFTV1 (Haloferax tailed virus 1 (HFTV1))
[10] = target: tail tube protein gp35 of HFTV1 (Haloferax tailed virus 1 (HFTV1))
[11] = target: tape measure protein gp40 of HFTV1 (Haloferax tailed virus 1 (HFTV1))
[12] = target: turret base protein gp30 of HFTV1 (Haloferax tailed virus 1 (HFTV1))
[13] = target: turret head protein gp31 of HFTV1 (Haloferax tailed virus 1 (HFTV1))

**Q.** “baseplate hub gp44 of HFTV1 (natural protein)” was tested. Which stoichiometry N [1] did it give?
**A.** 3

**Q.** For “baseplate-tail connector gp41 of HFTV1 (natural protein)”, which stoichiometry N [2] is on record?
**A.** 3

**Q.** With “capsid stabilization protein gp18 of HFTV1 (natural protein)” as the substance, how does the stoichiometry N [3] read?
**A.** 3

**Q.** For “head-tail connector gp26 of HFTV1 (natural protein)”, which stoichiometry N [4] is on record?
**A.** 12

**Q.** For “major capsid protein gp19 of Haloferax tailed virus 1 (HFTV1) (natural protein)”, which stoichiometry N [5] is on record?
**A.** 5 and 6

**Q.** “portal interface protein gp21 of HFTV1 (natural protein)” was tested. Which stoichiometry N [6] did it give?
**A.** 5

**Q.** Which stoichiometry N [7] does the source give for “portal protein gp13 of HFTV1 (natural protein)” here?
**A.** 12

**Q.** With “tail completion protein gp29 of HFTV1 (natural protein)” as the substance, how does the stoichiometry N [8] read?
**A.** 6

**Q.** With “tail fiber protein gp42 of HFTV1 (natural protein)” as the substance, how does the stoichiometry N [9] read?
**A.** 3

**Q.** How did the stoichiometry N [10] turn out when “tail tube protein gp35 of HFTV1 (natural protein)” was run?
**A.** 6

**Q.** Which stoichiometry N [11] does the source give for “tape measure protein gp40 of HFTV1 (natural protein)” here?
**A.** 6

**Q.** For “turret base protein gp30 of HFTV1 (from UniProt A0A410N6V5 1-115) (natural protein)”, which stoichiometry N [12] is on record?
**A.** 6

**Q.** For “turret head protein gp31 of HFTV1 (natural protein)”, which stoichiometry N [13] is on record?
**A.** 3
